Measurements published in publication PMC6922461.

How the values were obtained:
[1] = target: trivalent Strep-Tactin-SpyCatcher; test: SPR
[2] = target: monovalent Strep-Tactin-SpyCatcherΔ; test: SPR
monovalent Strep-Tactin-SpyCatcherΔ, sequence (P22629 other isoform, or with tags, fused parts or gaps mutant, chain 1 of 2): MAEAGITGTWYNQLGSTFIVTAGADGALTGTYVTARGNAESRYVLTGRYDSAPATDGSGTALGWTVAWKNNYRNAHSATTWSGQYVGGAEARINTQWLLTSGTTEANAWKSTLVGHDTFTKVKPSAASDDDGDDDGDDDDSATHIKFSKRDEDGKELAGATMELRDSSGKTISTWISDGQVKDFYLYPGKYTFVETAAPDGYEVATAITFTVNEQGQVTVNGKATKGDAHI
monovalent Strep-Tactin-SpyCatcherΔ, sequence (P22629 other isoform, or with tags, fused parts or gaps mutant, chain 2 of 2): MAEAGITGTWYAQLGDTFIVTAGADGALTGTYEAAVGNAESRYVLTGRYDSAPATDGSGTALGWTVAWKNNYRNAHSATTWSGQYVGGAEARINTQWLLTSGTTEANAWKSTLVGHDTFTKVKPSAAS

trivalent Strep-Tactin-SpyCatcher, sequence (P22629 other isoform, or with tags, fused parts or gaps, chain 1 of 2): as the sequence (P22629 other isoform, or with tags, fused parts or gaps mutant, chain 2 of 2) above, with A12N, D16S, E33V, A34T, V36R counted along it
trivalent Strep-Tactin-SpyCatcher, sequence (P22629 other isoform, or with tags, fused parts or gaps, chain 2 of 2): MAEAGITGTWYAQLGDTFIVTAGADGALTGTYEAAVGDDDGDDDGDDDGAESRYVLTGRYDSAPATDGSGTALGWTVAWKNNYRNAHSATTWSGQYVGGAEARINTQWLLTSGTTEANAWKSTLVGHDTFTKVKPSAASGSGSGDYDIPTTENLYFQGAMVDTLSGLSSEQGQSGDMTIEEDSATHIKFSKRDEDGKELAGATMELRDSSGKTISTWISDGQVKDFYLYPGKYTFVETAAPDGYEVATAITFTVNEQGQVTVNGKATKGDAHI

Row | Substance | Kd [1] [µM] | Kd [2] [µM]
1 | Twin-Strep-tag–mTFP fusion protein | 6.8 | –
2 | Strep-tag II–mTFP | – | 43
